In the supplement of paper PMC10567573:

B1: ZBED2 (parent)
chain: RAGHHPNQYATCRLCGRQVSRGPG

Variants of: B1
Assay: protein stability index of a GFP-peptide fusion (GPS, HEK-293T) (PSI 1-6); higher = more stable
Settings: c terminus: a fixed tail appended
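Also: lentivirally expressed fusions sorted by FACS into six bins by GFP to DsRed ratio, PSI derived from sequencing read proportions per bin multiplied by bin number.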

Protein stability index of substitutions, site by site:
P23: E 1.76; H 2.54; D 2.85; Y 1.54; Q 2.11; C 2.96; T 2.2; F 1.54; M 1.77; N 1.88; I 2.27; V 1.84; S 2.05; R 2.8
G24: C 1.53; H 2.15; M 2.17; S 1.56; D 1.7; F 1.17; K 2.03; V 1.61; T 2.17; N 2.42; W 1.97; I 2.11; R 1.8; Y 1.57; A 1.24; L 2.07; E 2.35; P 1.71
G22: K 2.68; S 2.53; H 2.12; I 1.9; W 1.46; V 1.77; D 1.64; T 2.24; F 1.55; M 1.57; P 2.57; L 2.48; N 2.29; E 2.08; R 1.95
